Assay [1] concerns the target T1, PHD2 and PHD3 fingers of human MLL3 (aa 342-439) (human, UniProt Q8NEZ4 342-439).
T1 chain: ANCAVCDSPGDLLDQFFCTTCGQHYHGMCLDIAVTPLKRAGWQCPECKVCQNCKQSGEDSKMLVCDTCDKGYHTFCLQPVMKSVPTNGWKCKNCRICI

Assay [2] concerns the target T2, PHD2 and PHD3 fingers of human MLL3 (aa 342-439) (human, UniProt Q8NEZ4 342-439).
T2 construct: PHD2 and PHD3 fingers of human MLL3 (KMT2C), aa 342-439; 15N-labelled for NMR titrations; also used unlabelled as the titrant against MLL3 PHD4; also called MLL3_(PHD2/3); MLL3 PHD2/3; source: E. coli BL21-CodonPlus, purified (glutathione agarose, PreScission cleavage; unlabeled proteins also SEC)
T2 sequence (looked up): T1 chain
In words: other fluorescence titration; tryptophan fluorescence, 25 °C; 1.0 µM MLL4 PHD2/3 or MLL3 PHD2/3 with increasing peptide; excitation 295 nm; 20 mM Tris pH 7.2, 150 mM NaCl, 1 mM TCEP, 0.02% Tween20; average of three measurements. To be noted: both partners purified.

Assay [3] addresses T3, PHD2 and PHD3 fingers of human MLL4 (aa 227-324) (human, UniProt O14686 227-324).
T3 construct: PHD2 and PHD3 fingers of human MLL4 (KMT2D), aa 227-324; also called MLL4_(PHD2/3); MLL4 PHD2/3; source: E. coli BL21-CodonPlus, purified (glutathione agarose, PreScission cleavage; unlabeled proteins also SEC)
T3 sequence (looked up): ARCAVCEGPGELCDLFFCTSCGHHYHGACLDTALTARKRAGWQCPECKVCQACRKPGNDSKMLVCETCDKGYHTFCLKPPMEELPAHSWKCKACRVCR
In words: not stated; fluorescence spectroscopy or NMR: the legends of Fig. 3c and Fig. 4b say that values marked (a) are from NMR and the others from fluorescence; the text does not tell which for these pairs. To be noted: both partners purified.

Assay [4] deals with T4, PHD2 and PHD3 fingers of human MLL4 (aa 227-324) (human, UniProt O14686 227-324).
T4 chain: T3 sequence (looked up)

The source of these data is publication PMC11161652, “ASXLs binding to the PHD2/3 fingers of MLL4 provides a mechanism for the recruitment of BAP1 to active enhancers” (Nature Communications, 2024).

B1: ASXL2 peptide (aa 650-670) R655I (peptide, UniProt Q76L83 650-670, looked up)
peptide: NRTGAITLADIKAKAQLVKAQ
notes: ASXL2, residues 650-670; R655I is said to be associated with large intestine cancer; also called R655I mutant of ASXL2; source: synthetic peptide (SynPeptide)
With B1, the Kd (commonly the constant that tells how readily two partners part at equilibrium) in assay [1] worked out at 10.5 µM; in assay [4] it was 11 µM. Further, the binding result in assay [2] is reported as “binds”. The “fold reduction in binding against the wild type ASXL2 peptide” value in assay [3] was about 16 fold.
